Numbering of substitutions follows the chain as printed. Read-outs that look alike come from different tables or passages of the source.
T1: human IL3 (human, UniProt P08700 20-152)
T1 sequence: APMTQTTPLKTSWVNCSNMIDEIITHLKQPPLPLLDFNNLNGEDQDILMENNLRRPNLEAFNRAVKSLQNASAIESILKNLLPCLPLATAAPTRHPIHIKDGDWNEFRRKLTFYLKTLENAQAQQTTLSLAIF

B1: MuHC × LC2 (antibody, V domains shown)
VH: QVQLQQSGAEMVRPGVSVKIACKGSGFTFTDYALHWVKQSHAKSLEWIGLISTYYGDTTYNQRFKGKATMTVDKSSSTAYMELARLTSEDSAIYYCVITTVAGTDAMDYWGQGTSVTVSS
VL: DIQMTQSPSSLSASVGDRVTITCHASQNINVWLSWYQQKPGKAPKLLIYKASNLHTGVPSRFSGSGSGTDFTFTISSLQPEDIATYYCQQGYSYPYTFGGGTKLEIK
B2: HC3.HMM × muLC (antibody, V domains shown)
VH: B1 VH with Q5V, V12K, R13K, V16A, I20V
VL: B1 VL with T5N, V15L, R18T, V19I, K42N, A43I, D70G, F73L
B3: HC6 × LC2 (antibody, V domains shown)
VH: QVQLVQSGAEMKKPGASVKVACKGSGFTFTDYALHWVRQAPGQRLEWMGLISTYYGDTTYNQRFKGRVTMTVDKSSSTAYMELSSLRSEDTAIYYCVITTVAGTDAMDYWGQGTLVTVSS
VL: B1 VL
B4: HC3.MMH × muLC (antibody, V domains shown)
VH: QVQLQQSGAEMVRPGVSVKIACKGSGFTFTDYALHWVKQSHAKSLEWIGLISTYYGDTTYNQRFKGRVTITRDTSASTAYMELSSLRSEDTAIYYCVITTVAGTDAMDYWGQGTLVTVSS
VL: B1 VL with T5N, V15L, R18T, V19I, K42N, A43I, D70G, F73L
B5: HC4 × LC2 (antibody, V domains shown)
VH: B3 VH with R67K, V68A
VL: B1 VL
B6: HC5 × LC2 (antibody, V domains shown)
VH: B3 VH with M70I, V72R, K74T, S76A, S84A, S85R, R87T, T91S, L115S
VL: B1 VL
B7: HC3.MHM × muLC (antibody, V domains shown)
VH: B1 VH with K38R, S40A, H41P, A42G, K43Q, S44R, I48M
VL: B1 VL with T5N, V15L, R18T, V19I, K42N, A43I, D70G, F73L
B8: HC3 × MuLC (antibody, V domains shown)
VH: B3 VH with M70I, V72R, K74T, S76A
VL: B1 VL with T5N, V15L, R18T, V19I, K42N, A43I, D70G, F73L

What was measured:
Test in all cases: cell-based or functional assay
human IL3 [1] = biological target: T1, human IL3
human IL3 [2] = biological target: T1, human IL3; remark: listed apart in the source
human IL3 [3] = biological target: T1, human IL3; remark: listed apart in the source

Row | Binder | Inhibitory activity (block of IL-3 induced downregulation of CD131 on primary human basophils; chimeric P8C11 normalized to 100%) (human IL3 [2]) | Inhibitory activity (block of IL-3 induced downregulation of CD131 on primary human basophils; chimeric P8C11 normalized to 100%) (human IL3 [3]) | other results
1 | B1 | – | – | Inhibitory activity (block of IL-3 induced downregulation of CD131 on primary human basophils; chimeric P8C11 normalized to 100%) (human IL3 [1]): 100%
2 | B2 | 100% | – | –
3 | B3 | – | 100% | –
4 | B4 | 4% | – | –
5 | B5 | – | 100% | –
6 | B6 | – | 9% | –
7 | B7 | 100% | – | –
8 | B8 | – | – | Inhibitory activity (block of IL-3 induced downregulation of CD131 on primary human basophils; chimeric P8C11 normalized to 100%) (human IL3 [1]): 6%
